This is an account of results in US10428140B2, “Anti-EphA4 antibody” (EISAI R&D MANAGEMENT CO., LTD., priority 2015, dated 2019).

Common to all, as to assay: Selectivity ELISA of humanized antibodies for human Eph receptor
Holding throughout (type): binding
Common to all, as to conditions: coated protein 1 nM
(In general: ELISA stands for enzyme-linked immunosorbent assay.)

In one test the target is T1, human EphB6 (Homo sapiens, UniProt O15197).
T1 construct: a protein of the extracellular region of each human Eph receptor fused with the SEAP protein and the His tag; made in house; host or cells: Expi293F cells
T1 sequence (O15197 32-594 limits assumed): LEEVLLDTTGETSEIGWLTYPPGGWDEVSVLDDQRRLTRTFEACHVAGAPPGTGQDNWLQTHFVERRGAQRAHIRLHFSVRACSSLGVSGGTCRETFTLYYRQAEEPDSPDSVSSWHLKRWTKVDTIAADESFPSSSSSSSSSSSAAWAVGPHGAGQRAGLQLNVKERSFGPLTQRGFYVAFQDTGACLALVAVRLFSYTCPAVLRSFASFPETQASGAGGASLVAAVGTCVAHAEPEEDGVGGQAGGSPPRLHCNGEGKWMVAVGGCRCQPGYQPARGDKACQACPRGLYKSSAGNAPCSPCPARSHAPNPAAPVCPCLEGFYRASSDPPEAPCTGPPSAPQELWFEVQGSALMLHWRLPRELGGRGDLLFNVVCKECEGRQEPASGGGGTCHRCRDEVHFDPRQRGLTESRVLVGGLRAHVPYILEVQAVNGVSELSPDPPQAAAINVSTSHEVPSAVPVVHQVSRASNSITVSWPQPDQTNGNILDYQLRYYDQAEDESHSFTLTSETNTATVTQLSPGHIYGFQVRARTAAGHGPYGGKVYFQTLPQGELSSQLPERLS
Put shortly: (§1)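 Steps: coat anti-His antibody; block, then 1% BlockAce overnight at 4 °C; add Eph receptor extracellular region-SEAP-His (1 nM final) 1 h; add humanized antibody 1 h; add HRP anti-IgG 1 h; develop TMB; stop with acid; read 450 nm.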

In a further test the target is T2, human EphA10 (Homo sapiens, UniProt Q5JZY3).
T2 construct: a protein of the extracellular region of each human Eph receptor fused with the SEAP protein and the His tag; made in house; host or cells: Expi293F cells (culture supernatant)
T2 sequence (Q5JZY3 34-565 limits assumed): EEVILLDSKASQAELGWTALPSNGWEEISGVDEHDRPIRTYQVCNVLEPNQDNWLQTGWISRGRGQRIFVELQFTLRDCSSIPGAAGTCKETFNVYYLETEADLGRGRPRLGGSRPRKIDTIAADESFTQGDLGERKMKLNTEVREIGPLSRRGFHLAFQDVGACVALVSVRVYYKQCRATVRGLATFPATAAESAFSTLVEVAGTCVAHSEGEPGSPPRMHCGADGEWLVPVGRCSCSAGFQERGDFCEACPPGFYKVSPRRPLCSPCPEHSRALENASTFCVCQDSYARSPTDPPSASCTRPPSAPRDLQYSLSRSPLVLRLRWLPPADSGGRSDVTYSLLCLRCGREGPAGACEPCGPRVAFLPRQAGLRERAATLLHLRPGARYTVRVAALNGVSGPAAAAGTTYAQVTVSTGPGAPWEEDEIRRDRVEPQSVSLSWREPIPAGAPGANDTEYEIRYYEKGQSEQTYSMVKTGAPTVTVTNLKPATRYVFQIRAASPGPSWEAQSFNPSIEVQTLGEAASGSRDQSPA
Put shortly:
as §1

A further test concerns the target T3, human EphB4 (Homo sapiens, UniProt P54760).
T3 construct: a protein of the extracellular region of each human Eph receptor fused with the SEAP protein and the His tag; made in house; host or cells: Expi293F cells
T3 sequence (P54760 16-539 limits assumed): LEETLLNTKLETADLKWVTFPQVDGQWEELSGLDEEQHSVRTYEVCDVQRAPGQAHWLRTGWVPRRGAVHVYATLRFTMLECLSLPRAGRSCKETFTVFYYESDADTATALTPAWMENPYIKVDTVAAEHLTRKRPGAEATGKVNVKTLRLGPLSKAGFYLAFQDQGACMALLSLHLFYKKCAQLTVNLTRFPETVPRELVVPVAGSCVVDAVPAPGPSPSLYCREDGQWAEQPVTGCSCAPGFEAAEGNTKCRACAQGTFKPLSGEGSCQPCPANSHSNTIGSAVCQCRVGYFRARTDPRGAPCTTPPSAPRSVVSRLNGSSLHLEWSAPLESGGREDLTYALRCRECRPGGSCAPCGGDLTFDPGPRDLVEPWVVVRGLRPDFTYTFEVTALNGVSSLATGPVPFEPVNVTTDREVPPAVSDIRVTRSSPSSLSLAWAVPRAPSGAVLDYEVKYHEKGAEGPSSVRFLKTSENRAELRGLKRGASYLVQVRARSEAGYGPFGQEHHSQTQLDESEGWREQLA
Put shortly: as §1

B1: 76 (antibody, V domains shown)
VH: QVQLVQSGSELKKPGASVKVSCKASGYTFTDYSMHWVRQAPGQGLKWMGWINTETGEPTYAQGFTGRFVFSLDTSVSTAYLQISSLKAEDTAVYYCARIPLYYYGSRYWYFDVWGQGTTVTVSS
VL: DIQMTQSPSSLSASVGDRVTITCRASENIYRNLAWYQQKPGKAPKLLVYAATNLADGVPSRFSGSGSGTDYTLTISSLQPEDFATYYCQHFWGTPWTFGQGTKVEIK
modifications: synthetic humanized antibody heavy chain variable region sequence; synthetic humanized antibody light chain variable region sequence
For the molecule B1, the “hEphB6-SEAP-: absorbance at 450 nm, percentage with respect to hEphA4-SEAP-His as 100%” value with human EphB6 is 5.2%. In the test with human EphA10, the “hEphA10-SEAP-: absorbance at 450 nm, percentage with respect to hEphA4-SEAP-His as 100%” value came out at 4.7%. Moreover, the “hEphB4-SEAP-: absorbance at 450 nm, percentage with respect to hEphA4-SEAP-His as 100%” value with human EphB4 turned out to be 5.2%.

B2: 67 (antibody, V domains shown)
VH: QIQLVQSGSELKKPGASVKVSCKASGYTFTDYSMHWVRQAPGQGLKWMGWINTETGEPTYAQGFTGRFVFSLDTSVSTAYLQISSLKAEDTAVYYCARIPLYYYGSRYWYFDVWGQGTTVTVSS
VL: DIQMTQSPSSLSASVGDRVTITCRASENIYRNLAWYQQKPGKAPKLLVYAATNLADGVPSRFSGSGSGTDYTLTISSLQPEDFATYYCQHFWGTPWTFGQGTKVEIK
modifications: synthetic humanized antibody heavy chain variable region sequence; synthetic humanized antibody light chain variable region sequence
B2: the “hEphB6-SEAP-: absorbance at 450 nm, percentage with respect to hEphA4-SEAP-His as 100%” value with human EphB6 is recorded as 4.7%. Also, in the test with human EphA10, the “hEphA10-SEAP-: absorbance at 450 nm, percentage with respect to hEphA4-SEAP-His as 100%” value was 4.6%. In addition, the “hEphB4-SEAP-: absorbance at 450 nm, percentage with respect to hEphA4-SEAP-His as 100%” value in the test with human EphB4 is 4.9%.

B3: 77 (antibody, V domains shown)
VH: QVQLVQSGSELKKPGASVKVSCKASGYTFTDYSMHWVRQAPGQGLEWMGWINTETGEPTYADDFKGRFVFSLDTSVSTAYLQISSLKAEDTAVYYCARIPLYYYGSRYWYFDVWGQGTTVTVSS
VL: DIQMTQSPSSLSASVGDRVTITCRASENIYRNLAWYQQKPGKAPKLLVYAATNLADGVPSRFSGSGSGTDYTLTISSLQPEDFATYYCQHFWGTPWTFGQGTKVEIK
modifications: synthetic humanized antibody heavy chain variable region sequence; synthetic humanized antibody light chain variable region sequence
As to B3, in the test with human EphB6, the “hEphB6-SEAP-: absorbance at 450 nm, percentage with respect to hEphA4-SEAP-His as 100%” value is 4.5%. For the same molecule, the “hEphA10-SEAP-: absorbance at 450 nm, percentage with respect to hEphA4-SEAP-His as 100%” value with human EphA10 came out at 4.5%. Also, the “hEphB4-SEAP-: absorbance at 450 nm, percentage with respect to hEphA4-SEAP-His as 100%” value in the test with human EphB4 worked out at 4.5%.

B4: 136 (antibody, V domains shown)
VH: QVQLVQSGSELKKPGASVKVSCKASGYTFTDYSMHWVRQAPGQGLKWMGWINTETGEPTYADDFKGRFVFSLDTSVSTAYLQISSLKAEDTAVYYCARIPLYYYGSRYWYFDVWGQGTTVTVSS
VL: EIVMTQSPATLSVSPGERATLSCRASENIYRNLAWYQQKPGQSPRLLIYAATNLADGIPARFSGSGSGTEYTLTISSLQSEDFAVYYCQHFWGTPWTFGQGTKVEIK
modifications: synthetic humanized antibody heavy chain variable region sequence; synthetic humanized antibody light chain variable region sequence
Consider B4, for which the “hEphB6-SEAP-: absorbance at 450 nm, percentage with respect to hEphA4-SEAP-His as 100%” value in the test with human EphB6 came to 5.5%. Besides, in the test with human EphA10, the “hEphA10-SEAP-: absorbance at 450 nm, percentage with respect to hEphA4-SEAP-His as 100%” value came to 5.2%. For the same molecule, the “hEphB4-SEAP-: absorbance at 450 nm, percentage with respect to hEphA4-SEAP-His as 100%” value with human EphB4 stood at 5.2%.

B5: 156 (antibody, V domains shown)
VH: QIQLVQSGSELKKPGASVKVSCKASGYTFTDYSMHWVRQAPGQGLKWMGWINTETGEPTYAQGFTGRFVFSLDTSVSTAYLQISSLKAEDTAVYYCARIPLYYYGSRYWYFDVWGQGTTVTVSS
VL: DIQMTQSPSSLSASVGDRVTITCRASENIYRNLAWYQQKPGKAPQLLLYAATNLADGVPSRFSGSGSGTDYTLTISSLQPEDFATYYCQHFWGTPWTFGQGTKVEIK
modifications: synthetic humanized antibody heavy chain variable region sequence; synthetic humanized antibody light chain variable region sequence
As to B5, the “hEphB6-SEAP-: absorbance at 450 nm, percentage with respect to hEphA4-SEAP-His as 100%” value in the test with human EphB6 is 5.7%. Also, in the test with human EphA10, the “hEphA10-SEAP-: absorbance at 450 nm, percentage with respect to hEphA4-SEAP-His as 100%” value turned out to be 5.3%. In the test with human EphB4, the “hEphB4-SEAP-: absorbance at 450 nm, percentage with respect to hEphA4-SEAP-His as 100%” value is reported as 5.6%.

B6: 78 (antibody, V domains shown)
VH: QVQLVQSGSELKKPGASVKVSCKASGYTFTDYSMHWVRQAPGQGLKWMGWINTETGEPTYADDFKGRFVFSLDTSVSTAYLQISSLKAEDTAVYYCARIPLYYYGSRYWYFDVWGQGTTVTVSS
VL: DIQMTQSPSSLSASVGDRVTITCRASENIYRNLAWYQQKPGKAPKLLVYAATNLADGVPSRFSGSGSGTDYTLTISSLQPEDFATYYCQHFWGTPWTFGQGTKVEIK
modifications: synthetic humanized antibody heavy chain variable region sequence; synthetic humanized antibody light chain variable region sequence
Turning to B6, the “hEphB6-SEAP-: absorbance at 450 nm, percentage with respect to hEphA4-SEAP-His as 100%” value in the test with human EphB6 came to 5.2%. Besides, the “hEphA10-SEAP-: absorbance at 450 nm, percentage with respect to hEphA4-SEAP-His as 100%” value with human EphA10 is on record as 5.2%. For the same molecule, the “hEphB4-SEAP-: absorbance at 450 nm, percentage with respect to hEphA4-SEAP-His as 100%” value with human EphB4 stood at 5.1%.
